# Substrate: O=C(CCc1ccc(O)cc1)c1c(O)cc(O)cc1O[C@@H]1O[C@H](CO)[C@@H](O)[C@H](O)[C@H]1O
# Experiment: cells, lysate or membranes
# Details: Xenopus oocytes, pH 5.0, 15 min uptake, cumulative transport assay
protein,measurement,value
PUP8 (AtPUP8) (Arabidopsis thaliana) (protein) MEITQVIYVNDHNNIEANLTGQEEMNTTMEIESSSVPQSKNYKKWLRISIYVFFVLACQALSTILGRVYYENGGKSTWMGTLVQLIGFPVLFLFRFFSQTKNPKPTEADFRKFSSFTILGSVYIVTGLLVSANSYMSSVGLLYLPVSTFSLILASQLAFTAFFSYFLNSQKFTPFIVNSLFLLTISSALLVVNTDSENTAKVSRVKYVIGIICTIGASAGIGLLLSLVQLILRKVLKKQTFSTVTDLVAYQSLVASCVVLIGLFASGEWKTLTSEMENYKLGKVPYVMTLASIAISWQVYTIGVVGLIFESSSVFSNSITAVGLPIVPVVAVIVFHDKMNASKIFSIILAIWGFISFVYQHYLDEKKLKTSHTSPVGDPHLLPAEEGHTNIHSV,Km,296 ± 39 µM

# Source: publication doi:10.1101/2020.08.14.248047v1
